Data as given in PMC9798557 (2022).

Legend:
[1] = biological target: T1, CD38 on CD38-positive cell lines (human, UniProt P28907 1-300); assay: FACS; Ramos cells
[2] = biological target: T1, CD38 on CD38-positive cell lines; assay: FACS; RPMI 8226 cells
[3] = biological target: T1, CD38 on CD38-positive cell lines; assay: FACS; Raji cells
[4] = biological target: T1, CD38 on CD38-positive cell lines; assay: FACS; MOLP-8 cells
[5] = biological target: T1, CD38 on CD38-positive cell lines; assay: FACS; SU-DHL-6 cells
[6] = biological target: T1, CD38 on CD38-positive cell lines; assay: FACS; H929 cells
[7] = biological target: T1, CD38 on CD38-positive cell lines; assay: FACS; Daudi cells
[8] = biological target: T1, CD38 on CD38-positive cell lines; assay: FACS; MM1S cells

EC50 [1]: 0.74 µg/mL
EC50 [2]: 1.19 µg/mL
EC50 [3]: 0.321 µg/mL
EC50 [4]: 0.28 µg/mL
EC50 [5]: 0.548 µg/mL
EC50 [6]: 0.767 µg/mL
EC50 [7]: 0.289 µg/mL
EC50 [8]: 0.581 µg/mL
B1: daratumumab (antibody, V domains shown)
VH: EVQLLESGGGLVQPGGSLRLSCAVSGFTFNSFAMSWVRQAPGKGLEWVSAISGSGGGTYYADSVKGRFTISRDNSKNTLYLQMNSLRAEDTAVYFCAKDKILWFGEPVFDYWGQGTLVTVSS
VL: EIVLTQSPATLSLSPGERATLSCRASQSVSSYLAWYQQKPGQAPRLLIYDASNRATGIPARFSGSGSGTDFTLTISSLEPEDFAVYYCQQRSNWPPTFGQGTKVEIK
